Patent publication US20130171217A1, “ENZYMATIC PERACID GENERATION FOR USE IN SKIN CARE PRODUCTS” (E I DU PONT DE NEMOURS AND COMPANY, priority 2010, published 2013)

Legend:
[1] = Single fiber tensile strength and bleaching start after two-step enzymatic application; details: two-step with buffer rinse
Method: Hair samples were cut into pieces 4-inches in length. The denier number (liner mass density) of each hair fiber was measured by Textechno Vibromat Instrument (Textechno Herbert Stein GmbH & Co. KG; Germany). The hair fibers were tested according to ASTM D 3822-01 (“Tensile Properties of Single Textile Fibers”; ASTM International, West Conshohocken, Pa., 2001), on an Instron testing system (Instron Model 1122 Tester; Instron, Mass.) at about 70° F. (approximately 21° C.) and 65% relative humidity. The treated area of the hair sample was placed in the middle of the gauge and both ends were gripped on the test heads. Both fiber ends were attached on a piece of tape, respectively, for easy handling and gripping on the test heads. The test used 2-inch (5.1 cm) gauge length, […], and 1.2 inch/min (3 cm/min) pulling rate. The force-strain curve of the fiber was recorded during the test. The tenacity at maximum (gf/den) was calculated by dividing maximum force (gf) by denier number (den). Note that (gf/den)/11.33=Newtons/tex (N/tex).
In a two-step application, the hair strands are first treated with perhydrolase solutions to allow the enzyme to bind hair. The hair strands are then dried or rinsed with buffer and dried. The rinse step is intended to remove excess unbound enzyme from the hair. The hair strands are soaked in triacetin and H2O2 solutions. The application is repeated for multiple times.
One experiment was carried out with C277S-HC263 and untargeted T. maritima variant C277S using the following protocol: • 1. Enzyme solutions comprising 0.5 mg/mL enzyme in 50 mM phosphate buffer (pH 8) were made with or without 10 wt % urea. • 2. Seven (7) hair strands were soaked in 0.2 mL of an enzyme solution for 10 min and then dried under N2 without prior rinsing. • 3. The hair strands were then soaked in 0.2 mL of a pH 8 solution containing 100-mM triacetin and 250-mM H2O2 for 15 min, dried, then rinsed with DI water and then dried again. • 4. Steps 2-3 were repeated up to 15 times.
Another experiment was carried out with C277S-HC263 (SEQ ID NO: 288), CPAH-HC263 (SEQ ID NO: 294), CPAH-HC1010 (SEQ ID NO: 295) and untargeted C277S using the following protocol: • 1. Enzyme solutions comprising 1.0 mg/mL enzyme in 50 mM phosphate buffer (pH 6) were prepared. For solutions containing two enzymes, the concentration of each enzyme was approximately 0.5 mg/mL. • 2. Seven (7) hair strands were soaked in 0.2 mL of an enzyme solution for 10 min, rinsed with 50 mM phosphate buffer (pH 6), and then dried under N2. • 3. The dried hair strands were then soaked into 0.2 mL of 50 mM phosphate buffer solution (pH 8) comprising 100 mM triacetin and 250 mM H2O2 for 15 min, dried, then rinsed with DI water and then dried again. • 4.

[2] = Impact of additives on perhydrolase activity, PAA indicator strip; assay type: biochemical; details: glycerin, ethanol, sorbitol, polyethylene glycol or propylene glycol additive
Method: A peracetic acid indicator strip with detection range from 75 to 400 ppm was used to study the impact of additives on the perhydrolase activity of a perhydrolase. When the PAA concentration is at least 0.2 wt %, the dark color generated on the indicator strip will turn back to original white color over time.
A first solution (“solution A”) was prepared using 50 mM phosphate buffer (pH 8) and 10 wt % of one of the following additives: glycerin, ethanol, sorbitol, polyethylene glycol, propylene glycol in, respectively.
A second solution (“solution B”) was prepared by mixing 30% H2O2 and 50 mM phosphate buffer (pH 8) whereby the final concentration of H2O2 was 500 mM.
A third solution (“solution C”) was prepared comprising of CPAH-HC1010 (SEQ ID NO: 295) (0.2 mg/mL), triacetin (200 mM), 50 mM phosphate buffer (pH 8), and solution A (5 wt % additive). Immediately, added solution B in a 1:1 volume ratio. After 1 to 5 min, a 30-μL sample of the resulting solution was removed and immediately placed on a PAA indicator strip.
This process was repeated for each of the additives listed above.

B1: CPAH-HC1010: fusion peptide C277S-HC1010 further comprising a D128G substitution (protein)
chain: MAFFDLPLEELKKYRPERYEEKDFDEFWEETLAESEKFPLDPVFERMESHLKTVEAYDVTFSGYRGQRIKGWLLVPKLEEEKLPCVVQYIGYNGGRGFPHDWLFWPSMGYICFVMDTRGQGSGWLKGGTPDYPEGPVDPQYPGFMTRGILDPRTYYYRRVFTDAVRAVEAAASFPQVDQERIVIAGGSQGGGIALAVSALSKKAKALLCDVPFLCHFRRAVQLVDTHPYAEITNFLKTHRDKEEIVFRTLSYFDGVNFAARAKIPALFSVGLMDNISPPSTVFAAYNYYAGPKEIRIYPYNNHEGGGSFQAVEQVKFLKKLFEKGGPGSGGAGSPGSAGGPGSAQSQLPDKHSGLHERAPQRYGSGTAEIQSSKNPNPHPQRSWTNGSGHNHMQERYTDPQHSPSVNGLGSGHDHKNQKETHQRHAASSHHHHHH
In the case of B1, the “Bleaching Start” value ([1]; 1.0 mg/mL enzyme pH 6) is reported as 12th, the “Tenacity @ max” value ([1]; 1.0 mg/mL enzyme pH 6, 100 mM triacetin, 250 mM H2O2, up to 13 repeats) is reported as 1.2 gf/den and the “perhydrolase activity (PAA by indicator strip) in presence of additives” value [2] is reported as no less than 2000 ppm.
